Results on one substance are retold here after US20170067044A1.

The target of the assay is streptavidin (recombinant, with Ni-affinity tag) (UniProt P22629). Put plainly: PLISA on immobilized streptavidin, binding through biotin.
Sequence of streptavidin (recombinant, with Ni-affinity tag) (P22629 37-163 limits assumed): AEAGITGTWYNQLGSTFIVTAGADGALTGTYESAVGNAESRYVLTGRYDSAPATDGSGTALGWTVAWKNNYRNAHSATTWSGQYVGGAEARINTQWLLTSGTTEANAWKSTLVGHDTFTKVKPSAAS

Take “biotinylated form of M13LuxABElink-SompbioVII3 (luciferase-encoding M13 phage exposing a biotinylated BirA-substrate polypeptide as part of capsid protein VII) (from UniProt P69533 1-33)”: the smallest amount of streptavidin detected (pg loaded in the well) worked out at 1.
